Experimental data: article PMC8097376 (2021)

B1: nanobody NM1225 (VHH)
VHH: QVQLVESGGGLVQPGGSLRLSCAASGNILRVHDMGWYRQAPGKQREYVAMITHGGITNYIDSVKGRFTISRDNAKNTVYLQMNSLKPEDTAVYYCHAVLSSALNGVTETSSNWGQGTQVTVSS
B2: nanobody NM1227 (VHH)
VHH: EVQLVESGGGLVQPGGSLTLSCETSGRHFDIDDMGWYRQAPGKQRELVACITTESSTTYADAVKGRFTISRDNPDNTVYLQMTNLKPEDTAVYYCNAEMHPRSLDYALGNRDYWGQGAPVTVSS
B3: nanobody NM1228 (VHH)
VHH: DVQLVESGGGLVRPGGSLRLSCESSGRHFDIDTMGWYRQAPGKQRELVASITSEKSTVYADALKGRFTISRDIPDNNVYLQMNNLKPEDTAVYYCNAKMDPHSLDYALGNQVFWGQGSLVTVSS
B4: nanobody NM1229 (VHH)
VHH: EVQLQESGGGLVQPGESLRLSCAASGRTHDWYTMGWFRQAPGKEREFVARINWSSGMTYYADSVKGRFTISRDNPKNTVYLQMNSLTPDDTAVYYCNVHPFTSPDYWGQGTRVTVSS
B5: nanobody NM1223 (VHH)
VHH: EVQLVESGGGLVQPGGSLRLSCSASGFAFSSVSMSWVRLLPGKGTEWVAEIDRDGGNGNYEDSVKGRFTISRDNAKNTLFLQMNSLVPEDTALYYCRLGTRDHIMSGWGPGAPVTVSS
B6: nanobody NM1222 (VHH)
VHH: EVQLVESGGGLVRPGGSLRLSCVGSGFTFSGYAINWYRQAPGKALELVAGISNAGDLTHYEEAMKGRVAISRANDKNTVYLQMDDLKPEDTAVYRCHAPGVRVGTGERNDVWGQGAQVTVSS
B7: nanobody NM1221 (VHH)
VHH: DVQLVESGGGLVQPGGSLTLSCVGSGFLFSGYAMNWYRQAPGKALELVAGISNAGDITHYEEAMKGRVAISRVNDKNTVYLQMDDLKPEDTAVYRCHAPGVRVASGERNDVWGQGTQVTVSS
B8: nanobody NM1230 (VHH)
VHH: QVQLVESGGGLVRPGGSLRLSCVGSGFTFSGYAMNWYRQAPGKALELVAGISNAGDLTHYEEPMKGRVAISRANDKNTVYLQMDDLKPEDTAVYRCHAPGVRVGTGERKDVWGQGAQVTVSS
B9: nanobody NM1226 (VHH)
VHH: QVQLVESGGGSVQPGGSLRLSCLGSGSLDYYAIGWFRQAPGKEREGVSCIASSGDRTIYADSVKGRFTISRDYGKNTVYLQMNSLKPEDTAMYYCAALQGSYYYTGFVANEYDYWGQGAPVTVSS
B10: nanobody NM1224 (VHH)
VHH: DVQLVESGGSLVQPGGSLRLSCETSRSSLDAYAIGWFRQAPGKEREGVASISSSSMRTEYADSVKGRFTISRDNAKNTAYLDMNSLKPEDTAVYYCAAAGEYGRAWPGLDWYEFEYEGPGSPVTVSS

Columns and labels:
[1] = molecular target: T1, SARS-CoV-2 spike receptor-binding domain (RBD) (SARS-CoV-2, UniProt P0DTC2 319-541); assay: BLI
[2] = molecular target: T1, SARS-CoV-2 spike receptor-binding …; assay: BLI; remark: listed apart in the source
[3] = molecular target: T1, SARS-CoV-2 spike receptor-binding …
[4] = molecular target: S1 domain of the SARS-CoV-2 spike protein (SARS-CoV-2, UniProt P0DTC2 14-681)

| Binder | Kd [1] [nM] | koff [2] [s⁻¹] | IC50 [3] [nM] | IC50 [4] [nM] |
| --- | --- | --- | --- | --- |
| B1 | 53700 | 0.473 | – | – |
| B2 | 3.72 | 0.00079 | 1.65 | 3.51 |
| B3 | – | 0.00064 | – | 0.85 |
| B4 | 53.2 | 0.00985 | 37.8 | 56.1 |
| B5 | – | 0.00027 | – | – |
| B6 | 18 | 0.00294 | 5.8 | 27.3 |
| B7 | 22.7 | 0.00296 | 10.1 | 43.3 |
| B8 | – | 0.00166 | – | 10.6 |
| B9 | – | 0.00115 | – | 1.44 |
| B10 | – | 0.00267 | 36.6 | – |
